Source: patent US20060292149A1 (LIFE SCIENCES RESEARCH PARTNERS, published 2006)
Each block holds one binder with its values, some of them ahead of it.

Experiments:
recombinant FVIII = target: T1, recombinant FVIII (human, UniProt P00451 20-2351); test: SPR (BIAcore), antibody immobilised on CM5 chip, FVIII infused
T1 chain: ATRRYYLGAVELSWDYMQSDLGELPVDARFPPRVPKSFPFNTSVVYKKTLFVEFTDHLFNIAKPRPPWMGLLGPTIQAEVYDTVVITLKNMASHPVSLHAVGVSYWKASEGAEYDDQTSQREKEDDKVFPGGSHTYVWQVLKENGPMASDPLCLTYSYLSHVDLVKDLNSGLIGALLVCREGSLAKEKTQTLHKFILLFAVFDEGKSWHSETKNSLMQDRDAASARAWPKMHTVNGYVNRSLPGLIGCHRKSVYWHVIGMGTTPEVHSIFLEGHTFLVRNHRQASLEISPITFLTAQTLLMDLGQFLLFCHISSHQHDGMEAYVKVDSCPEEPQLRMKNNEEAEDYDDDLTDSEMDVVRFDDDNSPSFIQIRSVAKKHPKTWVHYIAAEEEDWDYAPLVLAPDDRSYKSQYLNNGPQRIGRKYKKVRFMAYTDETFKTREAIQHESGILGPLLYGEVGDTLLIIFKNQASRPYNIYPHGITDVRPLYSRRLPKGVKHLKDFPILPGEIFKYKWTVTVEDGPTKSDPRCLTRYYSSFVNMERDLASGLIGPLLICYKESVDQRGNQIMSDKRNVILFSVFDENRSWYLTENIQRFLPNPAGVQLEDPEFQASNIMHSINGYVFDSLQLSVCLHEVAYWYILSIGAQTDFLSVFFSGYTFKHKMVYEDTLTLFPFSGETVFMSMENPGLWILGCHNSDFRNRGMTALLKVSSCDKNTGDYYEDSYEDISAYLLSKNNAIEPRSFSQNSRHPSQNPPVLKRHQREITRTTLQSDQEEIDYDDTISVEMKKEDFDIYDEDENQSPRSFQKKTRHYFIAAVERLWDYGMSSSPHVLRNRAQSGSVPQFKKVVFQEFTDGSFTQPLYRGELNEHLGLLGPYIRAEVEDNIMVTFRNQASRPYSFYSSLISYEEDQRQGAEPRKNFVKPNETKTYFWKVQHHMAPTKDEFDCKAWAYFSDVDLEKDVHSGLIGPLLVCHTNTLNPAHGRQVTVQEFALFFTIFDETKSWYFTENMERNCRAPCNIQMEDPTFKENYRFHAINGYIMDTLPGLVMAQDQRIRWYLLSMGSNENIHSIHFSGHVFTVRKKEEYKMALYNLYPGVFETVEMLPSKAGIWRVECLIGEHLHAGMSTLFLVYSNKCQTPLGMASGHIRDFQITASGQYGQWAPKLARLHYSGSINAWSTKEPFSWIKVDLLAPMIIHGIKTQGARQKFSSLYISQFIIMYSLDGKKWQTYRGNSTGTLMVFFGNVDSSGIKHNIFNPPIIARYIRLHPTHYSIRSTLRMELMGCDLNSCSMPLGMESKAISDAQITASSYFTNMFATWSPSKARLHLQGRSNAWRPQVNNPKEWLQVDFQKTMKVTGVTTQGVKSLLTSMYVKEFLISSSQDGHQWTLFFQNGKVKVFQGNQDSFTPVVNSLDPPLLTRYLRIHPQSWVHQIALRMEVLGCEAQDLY

[1] = target: Factor VIII in a pool of normal human plasma (human), P00451; test: cell-based or functional assay
[2] = target: recombinant FVIII (human), P00451; test: cell-based or functional assay

B1: CHO-recKRIX-1 (recombinant Krix-1 produced in CHO cells) (antibody, V domains shown)
VH: QVQLVQSGAEVKKPGASVKVSCKTSGYNFTGYSASGHIFTAYSVHWVRQAPGQGLEWMGRINPNSGATDYAHKFQGRVTMSRDTSISTAYMELSRLTSDDTAMYYCARADNYFDIVTGYTSHYFDYWGRGTLVTVSS
VL: EIVLTQSPGTLSLSPGERATLSCRASQSVASAYLAWYQQKPGQAPRLLIYGASSRATDIPHRFSGSGSGTDFTLTISRLEPEDFAVYYCQQYGTSALLTFGGGTKVEIKR
modifications: N-linked glycosylation site at Asn47-Thr49, glycosylated as produced by CHO cells
notes: also called native CHO-rec-KRIX-1; rec-mAb Krix-1
- Kd (recombinant FVIII): 0.14 nM

B3: CHO-recKRIX-1A (Krix-1 with Thr49 changed to Ala in the heavy chain, produced in CHO cells) (antibody, IgG4, V domains shown)
VH: QVQLVQSGAEVKKPGASVKVSCKTSGYNFAGYSASGHIFTAYSVHWVRQAPGQGLEWMGRINPNSGATDYAHKFQGRVTMSRDTSISTAYMELSRLTSDDTAMYYCARADNYFDIVTGYTSHYFDYWGRGTLVTVSS
VL: EIVLTQSPGTLSLSPGERATLSCRASQSVASAYLAWYQQKPGQAPRLLIYGASSRATDIPHRFSGSGSGTDFTLTISRLEPEDFAVYYCQQYGTSALLTFGGGTKVEIKR
notes: IgG4 kappa; The mutation disrupts the N-linked glycosylation site at Asn47-Thr49
- Kd (recombinant FVIII): 0.13 nM

B7: CHO-recKRIX-1 (recombinant Krix-1 produced in CHO cells) (antibody, V domains shown)
VH: QVQLVQSGAEVKKPGASVKVSCKTSGYNFTGYSASGHIFTAYSVHWVRQAPGQGLEWMGRINPNSGATDYAHKFQGRVTMSRDTSISTAYMELSRLTSDDTAMYYCARADNYFDIVTGYTSHYFDYWGRGTLVTVSSASTKGPSVF
VL: EIVLTQSPGTLSLSPGERATLSCRASQSVASAYLAWYQQKPGQAPRLLIYGASSRATDIPHRFSGSGSGTDFTLTISRLEPEDFAVYYCQQYGTSALLTFGGGTKVEIKRTVAAPSVFIFPPS
modifications: here or on the partner: N-linked glycosylation site at Asn47-Thr49, glycosylated as produced by CHO cells
- maximal inhibition of FVIII activity in large excess of antibody (chromogenic assay) [1]: 75 to 85%

Continued, values first:

- Kd (recombinant FVIII): 0.17 nM
B2: CHO-recKRIX-1Q (Krix-1 with Asn47 changed to Gln in the heavy chain, produced in CHO cells) (antibody, IgG4, V domains shown)
VH: QVQLVQSGAEVKKPGASVKVSCKTSGYQFTGYSASGHIFTAYSVHWVRQAPGQGLEWMGRINPNSGATDYAHKFQGRVTMSRDTSISTAYMELSRLTSDDTAMYYCARADNYFDIVTGYTSHYFDYWGRGTLVTVSS
VL: EIVLTQSPGTLSLSPGERATLSCRASQSVASAYLAWYQQKPGQAPRLLIYGASSRATDIPHRFSGSGSGTDFTLTISRLEPEDFAVYYCQQYGTSALLTFGGGTKVEIKR
notes: IgG4 kappa; The mutation disrupts the N-linked glycosylation site at Asn47-Thr49; also called Asn47Gln Krix-1; rec-mAb-KRIX-1Q

- inhibition of FVIII activity at a final concentration of RHD5 of 100 microgram/ml (plasma) [1]: 97%
- inhibition of FVIII activity at a final concentration of RHD5 of 100 microgram/ml (full length recombinant FVIII) [2]: 98%
B4: RHD5 (human monoclonal antibody from the lymphoblastoid cell line RHD5) (antibody, V domains shown)
VH: QVQLVQSGAEVKKPGSSVMVSCKASGGTFSSFGISWVRQAPGQGLEWVGGIIPIFGTANTARNFQNRVTITADEFTSTAYIRLRSLRSEDTAVYYCVGGRDAYSFDGFDVWGQGTMVTVSSASTKGPSVFP
VL: SSGLTQPHSVSVSPGQTANITCSRDKLGHKFASWYQQKPGQSPALLIYQDSKRPSGIPERFSGSNSGNTATLTISGTQAMDEADYYCQAWDNTTAVFGGGTKLTVLSQPKAAPSVTLFPPS

- inhibition of FVIII activity in plasma (Bethesda assay, chromogenic FVIII assay) [1]: 90%
- inhibition of FVIII activity in plasma (chromogenic assay) [1]: 90%
B5: Krix-1 (human monoclonal antibody KRIX-1 produced in a lymphoblastoid cell line) (antibody, V domains shown)
VH: QVQLVQSGAEVKKPGASVKVSCKTSGYNFTGYSASGHIFTAYSVHWVRQAPGQGLEWMGRINPNSGATDYAHKFQGRVTMSRDTSISTAYMELSRLTSDDTAMYYCARADNYFDIVTGYTSHYFDYWGRGTLVTVSSASTKGPSVF
VL: EIVLTQSPGTLSLSPGERATLSCRASQSVASAYLAWYQQKPGQAPRLLIYGASSRATDIPHRFSGSGSGTDFTLTISRLEPEDFAVYYCQQYGTSALLTFGGGTKVEIKRTVAAPSVFIFPPS
modifications: here or on the partner: N-linked glycosylation site at Asn47-Thr49, glycosylated as produced by the human lymphoblastoid cell line

- inhibition of FVIII activity in plasma (chromogenic assay) [1]: 50%
- maximal inhibition (plateau inhibition) of FVIII activity in plasma (Bethesda assay, chromogenic FVIII assay) [1]: 50%
B6: deglycosylated KRIX-1 (KRIX-1 treated with N-glycosidase-F) (antibody, IgG4, V domains shown)
VH: QVQLVQSGAEVKKPGASVKVSCKTSGYNFTGYSASGHIFTAYSVHWVRQAPGQGLEWMGRINPNSGATDYAHKFQGRVTMSRDTSISTAYMELSRLTSDDTAMYYCARADNYFDIVTGYTSHYFDYWGRGTLVTVSSASTKGPSVF
VL: EIVLTQSPGTLSLSPGERATLSCRASQSVASAYLAWYQQKPGQAPRLLIYGASSRATDIPHRFSGSGSGTDFTLTISRLEPEDFAVYYCQQYGTSALLTFGGGTKVEIKRTVAAPSVFIFPPS
modifications: here or on the partner: N-linked glycans removed by N-glycosidase-F (2 U/ml, 37 C, 72 h)
